Measured values published in patent US20250361288A1 (Gilead, published 2025).
Positions count from the first letter of the chain named. In names and notes the source's numbering stands.

B1: LIGHT-4 (ligand)
chain: DGPAGSWEQLIQERRSHEVNPAAHLTGANSSLTGSGGPLLWETQLGLAFLRGLSYHDGALVVTKAGYYYIYSKVQLGGMGCPLGLASPITHGLYKRTPRYPEELELLVSQQSPCGRATSSSRVWWDSSFLGGVVHLEAGEKVVVRVLDERLVRLLDGTRSYFGAFMV
notes: Printed mutations: V152M, T161P, R228L; Soluble protein carries an N-terminal His tag
B2: LIGHT-45 (ligand)
chain: B1 chain with G77S, M79V, S87P, P88S, L147S, R150H, L155R
notes: Printed mutations: G150S, S160P, T161S, L220S, R223H; Soluble protein carries an N-terminal His tag
B3: LIGHT-17 (ligand)
chain: B1 chain with Q44N, M79V, P88T, H135Y, L155R
notes: Printed mutations: H208Y, Q117N; Soluble protein carries an N-terminal His tag
B4: LIGHT-46 (ligand)
chain: B1 chain with L53M, M79V, P88T, K141E, L155R
notes: Printed mutations: L126M, K214E; Soluble protein carries an N-terminal His tag
B5: LIGHT-49 (ligand)
chain: B1 chain with L32P, Q44R, M79V, P88T, L147Q, L155R
notes: Printed mutations: L105P, Q117R, L220Q; Soluble protein carries an N-terminal His tag
B6: LIGHT-38 (ligand)
chain: B1 chain with M79V, P88T, Q111R, W125Q, L155R
notes: Printed mutations: Q184R, W198Q; Soluble protein carries an N-terminal His tag
B7: LIGHT-50 (ligand)
chain: B1 chain with N29R, L47Q, M79V, P88T, H135R, K141E, L155R
notes: Printed mutations: N102R, L120Q, H208R, K214E; Soluble protein carries an N-terminal His tag
B8: LIGHT-33 (ligand)
chain: B1 chain with M79V, L147S, L155R
notes: Printed mutations: T161P, L220S; Soluble protein carries an N-terminal His tag
B9: LIGHT-48 (ligand)
chain: B1 chain with L47P, M79V, P88T, L147R, L155R
notes: Printed mutations: L120P, L220R; Soluble protein carries an N-terminal His tag
B10: LIGHT-13 (ligand)
chain: B1 chain with S31P, M79V, G84S, P88T, H135Y, L147R, L155R
notes: Printed mutations: S104P, G157S, H208Y, L220R; Soluble protein carries an N-terminal His tag
B11: LIGHT-30 (ligand)
chain: B1 chain with M79V, S87R, P88N, L147S, L155R
notes: Printed mutations: S160R, T161N, L220S; Soluble protein carries an N-terminal His tag
B12: LIGHT-40 (ligand)
chain: B1 chain with M79V, L83P, P88T, H135Y, L155R
notes: Printed mutations: L156P, H208Y; Soluble protein carries an N-terminal His tag
B13: LIGHT-10 (ligand)
chain: B1 chain with G77S, M79V, L147S, L155R
notes: Printed mutations: G150S, T161P, L220S; Soluble protein carries an N-terminal His tag
B14: LIGHT-47 (ligand)
chain: B1 chain with L53M, M79V, P88T, A117V, H135Y, L155R
notes: Printed mutations: L126M, A190V, H208Y; Soluble protein carries an N-terminal His tag
B15: LIGHT-44 (ligand)
chain: B1 chain with G77R, M79V, L85P, P88T, L147S, L155R
notes: Printed mutations: G150R, L158P, L220S; Soluble protein carries an N-terminal His tag
B16: LIGHT-41 (ligand)
chain: B1 chain with G77R, M79V, S87G, P88T, L147S, L155R
notes: Printed mutations: G150R, S160G, L220S; Soluble protein carries an N-terminal His tag
B17: LIGHT-16 (ligand)
chain: B1 chain with Q44H, M79V, L85M, P88T, E140D, L155R
notes: Printed mutations: Q117H, L158M, E213D; Soluble protein carries an N-terminal His tag
B18: LIGHT-9 (ligand)
chain: B1 chain with G77S, M79V, P88G, L147S, L155R
notes: Printed mutations: G150S, T161G, L220S; Soluble protein carries an N-terminal His tag
B19: LIGHT-32 (ligand)
chain: B1 chain with M79V, S87R, P88T, L147S, L155R
notes: Printed mutations: S160R, L220S; Soluble protein carries an N-terminal His tag
B20: LIGHT-51 (ligand)
chain: B1 chain with A28D, M79V, S87N, P88T, L147S, L155R
notes: Printed mutations: A101D, S160N, L220S; Soluble protein carries an N-terminal His tag
B21: LIGHT-43 (ligand)
chain: B1 chain with G77R, M79V, S87T, P88T, L147S, L155R
notes: Printed mutations: G150R, S160T, L220S; Soluble protein carries an N-terminal His tag
B22: LIGHT-11 (ligand)
chain: B1 chain with G77S, M79V, P88T, L147S, L155R
notes: Printed mutations: G150S, L220S; Soluble protein carries an N-terminal His tag
B23: LIGHT-6 (ligand)
chain: B1 chain with M79V, P88T, W125Q, L147N, D148G, L155R
notes: Printed mutations: W198Q, L220N, D221G; Soluble protein carries an N-terminal His tag
B24: LIGHT-8 (ligand)
chain: B1 chain with G77S, M79V, S87G, P88T, L147S, L155R
notes: Printed mutations: G150S, S160G, L220S; Soluble protein carries an N-terminal His tag
B25: LIGHT-15 (ligand)
chain: B1 chain with Q44E, M79V, P88T, E102K, K141E, L154T, L155R
notes: Printed mutations: Q117E, E175K, K214E, L227T; Soluble protein carries an N-terminal His tag
B26: LIGHT-19 (ligand)
chain: B1 chain with T63S, M79V, L83P, S87G, P88T, L147M, L155R
notes: Soluble protein carries an N-terminal His tag
B27: LIGHT-14 (ligand)
chain: B1 chain with T43S, M79V, L85Q, P88T, L93M, L155R
notes: as for B26
B28: LIGHT-18 (ligand)
chain: B1 chain with V62I, M79V, L85Q, P88T, K141E, E149K, L155R
notes: as for B26

biological target: T1, mouse HVEM extracellular domain fused with an Fc fragment at the C-terminus (mouse, UniProt Q80WM9 39-206, limits assumed); assay: phage ELISA
T1 construct: extracellular domain; Bought; also called mHVEM; not shown: Fc fragment at the C-terminus
T1 sequence (looked up): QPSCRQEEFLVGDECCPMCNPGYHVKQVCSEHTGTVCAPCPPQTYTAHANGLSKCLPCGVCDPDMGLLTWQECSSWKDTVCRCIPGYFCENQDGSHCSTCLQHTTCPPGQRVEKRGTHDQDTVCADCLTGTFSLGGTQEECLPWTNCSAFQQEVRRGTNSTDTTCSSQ
Description: (§1) Individual clones from the fourth selection round were grown in 96-well deep well blocks in 100 μl of 2YT broth supplemented with 50 μg/ml ampicillin at 37° C. and 220 rpm for 5 hours. Then, 5 μl of helper phages were added to each well and incubated at 37° C. for 30 minutes. After centrifuging at 3,000 rpm for 10 minutes, the cells were resuspended and grown overnight in 150 μl/well of 2YT broth supplemented with 50 μg/ml ampicillin and 50 μg/ml kanamycin.
(§2) For the ELISA screening, 96-well ELISA plates were coated with target proteins (1 μg/ml in PBS) at 4° C. overnight and then blocked with 2% BSA for 2 hours at room temperature. The supernatant containing phage particles was added to the plates and incubated at room temperature for 1 hour. After incubation, the plates were washed five times with PBST. HRP (horseradish peroxidase) conjugated anti-M13 antibody (Sino Biological, China) was added to the wells and incubated at room temperature for 1 hour. Following another round of washing five times with PBST, 50 μl of TMB (3,3′, 5,5″-tetramethylbenzidine, #34029, ThemoFisher) was added to each well. After 5 minutes, the reaction was stopped by adding 50 μl stop solution (#C1058, Solarbio, China). The absorbance at 450 nm (OD450) was measured using a plate reader (SpectraMax M5, Molecule Devices). Wells coated with BSA were used as negative controls. Phage clones with an ELISA score ratio (target/BSA)>3 were considered positive clones.

| Binder | binding result |
| --- | --- |
| B1 | binds |
| B2 | binds |
| B3 | binds |
| B4 | binds |
| B5 | binds |
| B6 | binds |
| B7 | binds |
| B8 | binds |
| B9 | binds |
| B10 | binds |
| B11 | binds |
| B12 | binds |
| B13 | binds |
| B14 | binds |
| B15 | binds |
| B16 | binds |
| B17 | binds |
| B18 | binds |
| B19 | binds |
| B20 | binds |
| B21 | binds |
| B22 | binds |
| B23 | binds |
| B24 | binds |
| B25 | binds |

biological target: T2, human HVEM extracellular domain fused with an Fc fragment at the C-terminus (human, UniProt Q92956 39-202); assay: phage ELISA
T2 construct: extracellular domain; Bought; also called hHVEM; not shown: Fc fragment at the C-terminus
T2 sequence (looked up): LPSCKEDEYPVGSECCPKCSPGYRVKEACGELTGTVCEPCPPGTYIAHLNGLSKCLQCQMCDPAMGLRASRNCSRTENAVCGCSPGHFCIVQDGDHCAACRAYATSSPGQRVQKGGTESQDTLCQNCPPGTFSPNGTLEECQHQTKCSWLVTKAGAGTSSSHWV
Description: as §1, §2

| Binder | binding result |
| --- | --- |
| B1 | no binding |
| B5 | binds |
| B6 | binds |
| B7 | binds |
| B9 | binds |
| B10 | binds |
| B14 | binds |
| B15 | binds |
| B18 | no binding |
| B19 | binds |
| B20 | binds |
| B21 | binds |
| B22 | no binding |
| B23 | no binding |
| B24 | no binding |

biological target: T3, human LTβR extracellular domain fused with an Fc fragment at the C-terminus (human, UniProt P36941 31-227); assay: phage ELISA
T3 construct: extracellular domain; Bought; also called hLTβR; not shown: Fc fragment at the C-terminus
Description: as §1, §2

T3 sequence (P36941 31-227): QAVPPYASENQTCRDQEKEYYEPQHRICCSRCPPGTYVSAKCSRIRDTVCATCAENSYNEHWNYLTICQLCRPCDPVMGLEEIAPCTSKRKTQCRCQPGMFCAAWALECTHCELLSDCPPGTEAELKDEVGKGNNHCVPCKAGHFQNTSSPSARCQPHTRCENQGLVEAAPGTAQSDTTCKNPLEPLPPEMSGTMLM

| Binder | binding result |
| --- | --- |
| B1 | binds |
| B5 | binds |
| B6 | binds |
| B7 | binds |
| B10 | binds |
| B15 | binds |
| B20 | binds |
| B21 | binds |
| B23 | binds |
| B24 | binds |

biological target: T4, mouse LTβR extracellular domain fused with an Fc fragment at the C-terminus (mouse, UniProt P50284 31-223); assay: phage ELISA
T4 construct: extracellular domain; Bought; also called mLTβR; not shown: Fc fragment at the C-terminus
Description: as §1, §2

T4 sequence (P50284 31-223): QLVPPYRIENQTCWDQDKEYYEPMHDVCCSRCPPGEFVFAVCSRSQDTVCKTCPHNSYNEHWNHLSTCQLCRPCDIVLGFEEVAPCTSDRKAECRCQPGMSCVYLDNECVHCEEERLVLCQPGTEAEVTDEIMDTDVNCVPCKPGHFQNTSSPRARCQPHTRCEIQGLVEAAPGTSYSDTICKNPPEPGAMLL

| Binder | binding result |
| --- | --- |
| B1 | binds |
| B4 | binds |
| B5 | binds |
| B6 | binds |
| B7 | binds |
| B8 | binds |
| B10 | binds |
| B12 | binds |
| B15 | binds |
| B20 | binds |
| B21 | binds |
| B23 | binds |
| B24 | binds |

biological target: T2, human HVEM extracellular domain fused …; assay: ELISA on coated target-Fc
Description: (§3) Nunc MaxiSorp 96-well plates (Thermofisher) were coated with target proteins (1 μg/ml), and then blocked with 2% BSA-PBS buffer for one hour. Serial dilutions of the LIGHT muteins were added with a maximum concentration of 200 ng/ml. The plates were incubated for one hour, washed four times with PBST, and then incubated with mouse anti-His tag antibody (#105327, Sino Biological) for 1 hour. The plates were further incubated with HRP-conjugated goat anti-mouse secondary antibody (#SSA006, Sino Biological) before being washed three times with PBST and treated with TMB substrate (#34029, ThermoFisher). The plates were read at 450 nm on a SpectraMax M5 microplate reader (Molecule Devices). The ELISA results were analyzed using GraphPad Prism 9.0 software and the EC50s (half maximal effective concentration) were summarized in Table 5-1 and Table 5-2.

| Binder | EC50 |
| --- | --- |
| B26 | 0.0681 µg/mL |
| B3 | 0.0511 µg/mL |
| B4 | 0.0978 µg/mL |
| B8 | 0.0256 µg/mL |
| B11 | 0.157 µg/mL |
| B12 | 0.0503 µg/mL |
| B13 | 0.0467 µg/mL |
| B27 | 0.03 µg/mL |
| B17 | 0.0738 µg/mL |
| B28 | 0.0447 µg/mL |
| B25 | 0.0597 µg/mL |

biological target: T3, human LTβR extracellular domain fused …; assay: ELISA on coated target-Fc
Description: as §3

| Binder | EC50 |
| --- | --- |
| B2 | 0.0362 µg/mL |
| B3 | 0.0805 µg/mL |
| B4 | 0.0675 µg/mL |
| B8 | 0.0612 µg/mL |
| B9 | 0.756 µg/mL |
| B12 | 0.0959 µg/mL |
| B13 | 0.0441 µg/mL |
| B14 | 0.228 µg/mL |
| B16 | 0.108 µg/mL |
| B17 | 0.16 µg/mL |
| B18 | 0.0282 µg/mL |
| B19 | 0.247 µg/mL |
| B28 | 0.0894 µg/mL |
| B22 | 0.0395 µg/mL |
| B25 | 0.0748 µg/mL |

biological target: T4, mouse LTβR extracellular domain fused …; assay: ELISA on coated target-Fc
Description: as §3

| Binder | EC50 | binding result |
| --- | --- | --- |
| B2 | 0.0264 µg/mL | – |
| B26 | 0.468 µg/mL | – |
| B3 | 0.0442 µg/mL | – |
| B9 | 0.42 µg/mL | – |
| B13 | 0.0804 µg/mL | – |
| B14 | 0.0706 µg/mL | – |
| B27 | 0.0249 µg/mL | – |
| B16 | 0.0311 µg/mL | – |
| B17 | – | binds |
| B18 | 0.0224 µg/mL | – |
| B19 | 0.0632 µg/mL | – |
| B28 | 0.0413 µg/mL | – |
| B22 | 0.0233 µg/mL | – |
| B25 | 0.139 µg/mL | – |
